From patent publication US20210388087A1 (Chugai, published 2021)
Positions count from the first letter of the chain named. Names and notes keep the numbering of the source.

B1: H183/L072 VH S30Y (antibody, name in Kabat numbering, V domains shown)
VH: QVQLVESGGGLVQPGRSLRLSCAASGFTFYNAWMHWVRQAPGKGLEWVAQIKDKGNAYAAYYAPSVKGRFTISRDDSKNSIYLQMNSLKTEDTAVYYCHYVHYASASTVLPAFGVDAWGQGTTVTVSS
VL: DIVMTQSPLSLPVTPGEPASISCQASQELVHMNRNTYLHWYQQKPGQAPRLLIYKVSNRFPGVPDRFSGSGSGTDFTLKISRVEAEDVGVYYCAQGTSVPFTFGQGTKLEIK
B2: H183/L072 VH V100cI (antibody, name in Kabat numbering, V domains shown)
VH: B1 VH with Y30S, V109I
VL: B1 VL
B3: H183/L072 VH T28W (antibody, name in Kabat numbering, V domains shown)
VH: B1 VH with T28W, Y30S
VL: B1 VL
B4: H183/L072 VH S62I (antibody, name in Kabat numbering, V domains shown)
VH: B1 VH with Y30S, S65I
VL: B1 VL
B5: H183/L072 VH S100aL (antibody, name in Kabat numbering, V domains shown)
VH: B1 VH with Y30S, S107L
VL: B1 VL
B6: H183/L072 VH V95L (antibody, name in Kabat numbering, V domains shown)
VH: B1 VH with Y30S, V101L
VL: B1 VL
B7: H183/L072 VH T28V (antibody, name in Kabat numbering, V domains shown)
VH: B1 VH with T28V, Y30S
VL: B1 VL
B8: H183/L072 VH S62L (antibody, name in Kabat numbering, V domains shown)
VH: B1 VH with Y30S, S65L
VL: B1 VL
B9: H183/L072 VH S62A (antibody, name in Kabat numbering, V domains shown)
VH: B1 VH with Y30S, S65A
VL: B1 VL
B10: H183/L072 VH V95I (antibody, name in Kabat numbering, V domains shown)
VH: B1 VH with Y30S, V101I
VL: B1 VL
B11: H183/L072 VH S62M (antibody, name in Kabat numbering, V domains shown)
VH: B1 VH with Y30S, S65M
VL: B1 VL
B12: H183/L072 VH T100bL (antibody, name in Kabat numbering, V domains shown)
VH: B1 VH with Y30S, T108L
VL: B1 VL
B13: H183/L072 VH V63M (antibody, name in Kabat numbering, V domains shown)
VH: B1 VH with Y30S, V66M
VL: B1 VL
B14: H183/L072 VH S99M (antibody, name in Kabat numbering, V domains shown)
VH: B1 VH with Y30S, S105M
VL: B1 VL
B15: H183/L072 VH T100bM (antibody, name in Kabat numbering, V domains shown)
VH: B1 VH with Y30S, T108M
VL: B1 VL
B16: H183/L072 VH V63L (antibody, name in Kabat numbering, V domains shown)
VH: B1 VH with Y30S, V66L
VL: B1 VL
B17: H183/L072 VH S62P (antibody, name in Kabat numbering, V domains shown)
VH: B1 VH with Y30S, S65P
VL: B1 VL
B18: H183/L072 VH S100aM (antibody, name in Kabat numbering, V domains shown)
VH: B1 VH with Y30S, S107M
VL: B1 VL
B19: H183/L072 VH S99L (antibody, name in Kabat numbering, V domains shown)
VH: B1 VH with Y30S, S105L
VL: B1 VL
B20: H183/L072 VH T28M (antibody, name in Kabat numbering, V domains shown)
VH: B1 VH with T28M, Y30S
VL: B1 VL
B21: H183/L072 VH V100iA (antibody, name in Kabat numbering, V domains shown)
VH: B1 VH with Y30S, V115A
VL: B1 VL
B22: H183/L072 VH T100bI (antibody, name in Kabat numbering, V domains shown)
VH: B1 VH with Y30S, T108I
VL: B1 VL
B23: H183/L072 VH T28I (antibody, name in Kabat numbering, V domains shown)
VH: B1 VH with T28I, Y30S
VL: B1 VL
B24: H183/L072 VH S99A (antibody, name in Kabat numbering, V domains shown)
VH: B1 VH with Y30S, S105A
VL: B1 VL
B25: H183/L072 VH V63I (antibody, name in Kabat numbering, V domains shown)
VH: B1 VH with Y30S, V66I
VL: B1 VL
B26: H183/L072 VH V100cA (antibody, name in Kabat numbering, V domains shown)
VH: B1 VH with Y30S, V109A
VL: B1 VL
B27: H183/L072 VH V95M (antibody, name in Kabat numbering, V domains shown)
VH: B1 VH with Y30S, V101M
VL: B1 VL
B28: H183/L072 VH V63A (antibody, name in Kabat numbering, V domains shown)
VH: B1 VH with Y30S, V66A
VL: B1 VL
B29: H183/L072 VH V95P (antibody, name in Kabat numbering, V domains shown)
VH: B1 VH with Y30S, V101P
VL: B1 VL
B30: H183/L072 VH V100cM (antibody, name in Kabat numbering, V domains shown)
VH: B1 VH with Y30S, V109M
VL: B1 VL
B31: H183/L072 VH T28K (antibody, name in Kabat numbering, V domains shown)
VH: B1 VH with T28K, Y30S
VL: B1 VL
B32: H183/L072 VH T28A (antibody, name in Kabat numbering, V domains shown)
VH: B1 VH with T28A, Y30S
VL: B1 VL
B33: H183/L072 VH S99I (antibody, name in Kabat numbering, V domains shown)
VH: B1 VH with Y30S, S105I
VL: B1 VL
B34: H183/L072 VH S100aI (antibody, name in Kabat numbering, V domains shown)
VH: B1 VH with Y30S, S107I
VL: B1 VL
B35: H183/L072 VH V95A (antibody, name in Kabat numbering, V domains shown)
VH: B1 VH with Y30S, V101A
VL: B1 VL
B36: H183/L072 VH V100cL (antibody, name in Kabat numbering, V domains shown)
VH: B1 VH with Y30S, V109L
VL: B1 VL
B37: H183/L072 VH T28H (antibody, name in Kabat numbering, V domains shown)
VH: B1 VH with T28H, Y30S
VL: B1 VL
B38: H183/L072 VH T28Y (antibody, name in Kabat numbering, V domains shown)
VH: B1 VH with T28Y, Y30S
VL: B1 VL
B39: H183/L072 VH V63P (antibody, name in Kabat numbering, V domains shown)
VH: B1 VH with Y30S, V66P
VL: B1 VL
B40: H183/L072 VH T28G (antibody, name in Kabat numbering, V domains shown)
VH: B1 VH with T28G, Y30S
VL: B1 VL
B41: H183/L072 VH T28R (antibody, name in Kabat numbering, V domains shown)
VH: B1 VH with T28R, Y30S
VL: B1 VL
B42: H183/L072 VH V100iI (antibody, name in Kabat numbering, V domains shown)
VH: B1 VH with Y30S, V115I
VL: B1 VL
B43: H183/L072 VH T28E (antibody, name in Kabat numbering, V domains shown)
VH: B1 VH with T28E, Y30S
VL: B1 VL
B44: H183/L072 VH T28Q (antibody, name in Kabat numbering, V domains shown)
VH: B1 VH with T28Q, Y30S
VL: B1 VL
B45: H183/L072 VH T28P (antibody, name in Kabat numbering, V domains shown)
VH: B1 VH with T28P, Y30S
VL: B1 VL
B46: H183/L072 VH S100aA (antibody, name in Kabat numbering, V domains shown)
VH: B1 VH with Y30S, S107A
VL: B1 VL
B47: H183/L072 VH T100bA (antibody, name in Kabat numbering, V domains shown)
VH: B1 VH with Y30S, T108A
VL: B1 VL

Each binder was assayed against T1, Human CD137 ECD (human) (assay: single mutant vs template dBBDu183H).
T1 construct: also called 4-1BB
T1 sequence (chain, as listed by the source limits assumed): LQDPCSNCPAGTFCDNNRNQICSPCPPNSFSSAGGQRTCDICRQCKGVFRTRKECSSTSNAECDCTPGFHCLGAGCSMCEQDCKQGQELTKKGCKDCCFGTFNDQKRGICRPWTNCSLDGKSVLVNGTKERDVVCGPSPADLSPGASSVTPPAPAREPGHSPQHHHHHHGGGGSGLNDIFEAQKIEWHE

Row | fold change of affinity | Binder
1 | 0.5 fold | B1
2 | 2.5 fold | B2
3 | 0.8 fold | B3
4 | 0.7 fold | B4
5 | 0 fold | B5
6 | 0.2 fold | B6
7 | 1.2 fold | B7
8 | 0.9 fold | B8
9 | 0.7 fold | B9
10 | 0.3 fold | B10
11 | 0.8 fold | B11
12 | 0.1 fold | B12
13 | 0.8 fold | B13
14 | 0.8 fold | B14
15 | 0.5 fold | B15
16 | 0.9 fold | B16
17 | 0.7 fold | B17
18 | 0 fold | B18
19 | 0.3 fold | B19
20 | 0.7 fold | B20
21 | 0 fold | B21
22 | 0 fold | B22
23 | 0.8 fold | B23
24 | 1.4 fold | B24

Row | fold change of affinity | Binder
25 | 1.1 fold | B25
26 | 0.4 fold | B26
27 | 0 fold | B27
28 | 0.9 fold | B28
29 | 0 fold | B29
30 | 1.3 fold | B30
31 | 1.1 fold | B31
32 | 0.4 fold | B32
33 | 0 fold | B33
34 | 0 fold | B34
35 | 0 fold | B35
36 | 3.3 fold | B36
37 | 1.1 fold | B37
38 | 1.1 fold | B38
39 | 1 fold | B39
40 | 0.3 fold | B40
41 | 1.5 fold | B41
42 | 1.1 fold | B42
43 | 0.3 fold | B43
44 | 0.5 fold | B44
45 | 0.5 fold | B45
46 | 0 fold | B46
47 | 0 fold | B47
